Measured values taken from patent publication US20050276799A1 (PDL BIOPHARMA, published 2005).
Residue numbers refer to the chain shown, from its start. Numbers in names are those of the source.

B1: OST577-IgG1 wild-type (antibody)
heavy: not shown
light: SYVLTQPPSVSVAPGQTARITCGGDNIGSKSVNWFQQKPGQAPVLVVYDDNERPSGISERFSGSNSGNTATLTISRVEAGDEADYYCQVWDSSSDHVVFGGGTKLTVLGQPKAAPSVTLFPPSSEELQANKATLVCLISDFYPGAVTVAWKADSSPVKAGVETTTPSKQSNNKYAASSYLSLTPEQWKSHRSYSCQVTHEGSTVEKTVAPTECS
notes: Human anti-HBV antibody, IgG1 heavy, lambda-2 light
B2: OST577-IgG1 M428L (antibody)
heavy: not shown
light: B1 light
B3: OST577-IgG1 T250Q (antibody)
heavy: not shown
light: B1 light
B4: OST577-IgG1 T250Q/M428L (antibody)
heavy: not shown
light: B1 light
B5: OST577-IgG1 M428F (antibody)
heavy: not shown
light: B1 light
B6: OST577-IgG1 T250E (antibody)
heavy: not shown
light: B1 light
B7: OST577-IgG1 T250E/M428F (antibody)
heavy: not shown
light: B1 light
B8: OST577-IgG2M3 M428L (antibody)
heavy: QVQLVESGGGVVQPGRSLRLSCAASGFTFSRYGMHWVRQAPGKGLEWVAVISYDGSNKWYADSVKGRFTISRDNSKNTLFLQMHSLRAADTGVYFCAKDQLYFGSQSPGHYWGQGTLVTVSSASTKGPSVFPLAPCSRSTSESTAALGCLVKDYFPEPVTVSWNSGALTSGVHTFPAVLQSSGLYSLSSVVTVPSSNFGTQTYTCNVDHKPSNTKVDKTVERKCCVECPPCPAPPAAAPSVFLFPPKPKDTLMISRTPEVTCVVVDVSHEDPEVQFNWYVDGVEVHNAKTKPREEQFNSTFRVVSVLTVVHQDWLNGKEYKCKVSNKGLPAPIEKTISKTKGQPREPQVYTLPPSREEMTKNQVSLTCLVKGFYPSDIAVEWESNGQPENNYKTTPPMLDSDGSFFLYSKLTVDKSRWQQGNVFSCSVLHEALHNHYTQKSLSLSPSK
light: B1 light
B9: OST577-IgG2M3 T250Q (antibody)
heavy: B8 heavy with T251Q, L429M
light: B1 light
B10: OST577-IgG2M3 T250Q/M428F (antibody)
heavy: B8 heavy with T251Q, L429F
light: B1 light
B11: OST577-IgG2M3 T250Q/M428L (antibody)
heavy: B8 heavy with T251Q
light: B1 light
B12: OST577-IgG2M3 L314A (antibody)
heavy: B8 heavy with L315A, L429M
light: B1 light
B13: OST577-IgG2M3 L314Q (antibody)
heavy: B8 heavy with L315Q, L429M
light: B1 light
B14: OST577-IgG2M3 L314R (antibody)
heavy: B8 heavy with L315R, L429M
light: B1 light
B15: OST577-IgG2M3 L314W (antibody)
heavy: B8 heavy with L315W, L429M
light: B1 light
B16: OST577-IgG2M3 M428G (antibody)
heavy: B8 heavy with L429G
light: B1 light
B17: OST577-IgG2M3 T250A (antibody)
heavy: B8 heavy with T251A, L429M
light: B1 light
B18: OST577-IgG2M3 T250D (antibody)
heavy: B8 heavy with T251D, L429M
light: B1 light
B19: OST577-IgG2M3 T250S (antibody)
heavy: B8 heavy with T251S, L429M
light: B1 light
B20: OST577-IgG2M3 T250V (antibody)
heavy: B8 heavy with T251V, L429M
light: B1 light

Target: T1, recombinant, GPI-linked rhesus FcRn on cell line NS0 RhFcRn, clone R-3 (rhesus, UniProt H9Z6D2 24-297; Q6V7J5 21-119, GPI-linked)
T1 construct: Expressed from pDL410 on the surface of NS0 cells; not shown: human c-myc decapeptide flanked by linker peptides, then GPI linkage signal of human decay accelerating factor (vector p)
Assay: IC50 of wild-type / IC50 of this antibody, same assay

Point of comparison: B3, “Relative Binding” value 3 ratio. Against it:
- B1 — lower, 1 ratio
- B2 — higher, 14 ratio
- B4 — higher, 37 ratio

Target: T2, recombinant, GPI-linked human FcRn on cell line NS0 HuFcRn (memb), clone 7-3 (human, UniProt P55899 24-297; P61769 21-119)
T2 construct: Expressed from pDL208 on the surface of NS0 cells; also called human neonatal Fc receptor; not shown: human c-myc decapeptide flanked by linker peptides, then GPI linkage signal of human decay accelerating factor (vector p)
Assay: as above

Point of comparison: B5, “Relative Binding” value 4 ratio. Against it:
- B1 — lower, 1 ratio
- B6 — lower, 2.6 ratio
- B7 — higher, 14 ratio

Target: T2, recombinant, GPI-linked human FcRn on …
Assay: competition FACS vs biotinylated OST577-IgG1 on NS0 cells expressing human FcRn, FBB pH 6.0

Point of comparison: B1, IC50 10.3 µg/mL. Against it:
- B2 — 11-fold lower, 0.896 µg/mL
- B3 — 3.3-fold lower, 3.14 µg/mL
- B4 — 29-fold lower, 0.351 µg/mL

Target: T1, recombinant, GPI-linked rhesus FcRn on …
Assay: competition FACS vs biotinylated OST577-IgG2M3 on NS0 cells expressing rhesus FcRn, FBB pH 6.0

Point of comparison: B10, IC50 1.77 µg/mL. Against it:
- B8 — within 1.5-fold, 1.92 µg/mL
- B9 — 2.3-fold higher, 4.05 µg/mL
- B11 — 3.2-fold lower, 0.554 µg/mL

Target: T1, recombinant, GPI-linked rhesus FcRn on …
Assay: IC50 of wild-type / IC50 of this antibody, same assay
Remark: another data set of the same source

Point of comparison: B9, “Relative Binding” value 3.6 ratio. Against it:
- B8 — higher, 7.7 ratio
- B10 — higher, 8.4 ratio
- B11 — higher, 27 ratio

Target: T2, recombinant, GPI-linked human FcRn on …
Assay: as above
Remark: another data set of the same source

Point of comparison: B10, “Relative Binding” value 8 ratio. Against it:
- B8 — lower, 6.7 ratio
- B9 — lower, 2.8 ratio
- B11 — higher, 28 ratio

Target: T1, recombinant, GPI-linked rhesus FcRn on …
Assay: competition FACS vs biotinylated OST577-IgG1 on NS0 cells expressing rhesus FcRn, FBB pH 6.0

Point of comparison: B2, IC50 0.629 µg/mL. Against it:
- B1 — 14-fold higher, 8.86 µg/mL
- B3 — 4.7-fold higher, 2.97 µg/mL
- B4 — 2.7-fold lower, 0.236 µg/mL

Target: T2, recombinant, GPI-linked human FcRn on …
Assay: IC50 of wild-type / IC50 of this antibody, same assay
Remark: another data set of the same source

Point of comparison: B2, “Relative Binding” value 11 ratio. Against it:
- B1 — lower, 1 ratio
- B3 — lower, 3.3 ratio
- B4 — higher, 29 ratio

Target: T2, recombinant, GPI-linked human FcRn on …
Assay: competition FACS vs biotinylated OST577-IgG2M3 on NS0 cells expressing human FcRn, FBB pH 6.0

Point of comparison: B9, IC50 4.2 µg/mL. Against it:
- B8 — 2.3-fold lower, 1.79 µg/mL
- B10 — 2.8-fold lower, 1.5 µg/mL
- B11 — 9.8-fold lower, 0.43 µg/mL

Target: T2, recombinant, GPI-linked human FcRn on …
Assay: IC50 of wild-type / IC50 of this antibody, same assay
Remark: another data set of the same source

Point of comparison: B20, “Relative Binding” value 0.56 ratio. Against it:
- B12 — lower, 0.16 ratio
- B13 — lower, 0.33 ratio
- B14 — lower, 0.11 ratio
- B15 — lower, 0.53 ratio
- B16 — lower, 0.072 ratio
- B17 — higher, 0.8 ratio
- B18 — lower, < 0.05 ratio
- B19 — higher, 0.89 ratio

Target: T2, recombinant, GPI-linked human FcRn on …
Assay: competition FACS vs biotinylated OST577-IgG1 on NS0 cells expressing human FcRn, FBB pH 6.0
Remark: another data set of the same source

Point of comparison: B1, IC50 13.9 µg/mL. Against it:
- B5 — 4-fold lower, 3.44 µg/mL
- B6 — 2.6-fold lower, 5.26 µg/mL
- B7 — 14-fold lower, 0.99 µg/mL

Target: T2, recombinant, GPI-linked human FcRn on …
Assay: competition FACS vs biotinylated HuEP5C7-IgG2M3 on NS0 cells expressing human FcRn, FSB pH 6.0

Point of comparison: B20, IC50 19 µg/mL. Against it:
- B12 — 3.6-fold higher, 68.7 µg/mL
- B13 — 1.7-fold higher, 32 µg/mL
- B14 — 5.4-fold higher, 102 µg/mL
- B15 — within 1.5-fold, 20.2 µg/mL
- B16 — 7.7-fold higher, 147 µg/mL
- B17 — within 1.5-fold, 13.3 µg/mL
- B19 — 1.6-fold lower, 12 µg/mL
